What all share (assay): cell-based or functional assay
Test [1] deals with T1, NF-ATp expressed from an NF-ATp expression plasmid in HepG2 cells.
T1 sequence (Q13469 1-925, species assumed, looked up): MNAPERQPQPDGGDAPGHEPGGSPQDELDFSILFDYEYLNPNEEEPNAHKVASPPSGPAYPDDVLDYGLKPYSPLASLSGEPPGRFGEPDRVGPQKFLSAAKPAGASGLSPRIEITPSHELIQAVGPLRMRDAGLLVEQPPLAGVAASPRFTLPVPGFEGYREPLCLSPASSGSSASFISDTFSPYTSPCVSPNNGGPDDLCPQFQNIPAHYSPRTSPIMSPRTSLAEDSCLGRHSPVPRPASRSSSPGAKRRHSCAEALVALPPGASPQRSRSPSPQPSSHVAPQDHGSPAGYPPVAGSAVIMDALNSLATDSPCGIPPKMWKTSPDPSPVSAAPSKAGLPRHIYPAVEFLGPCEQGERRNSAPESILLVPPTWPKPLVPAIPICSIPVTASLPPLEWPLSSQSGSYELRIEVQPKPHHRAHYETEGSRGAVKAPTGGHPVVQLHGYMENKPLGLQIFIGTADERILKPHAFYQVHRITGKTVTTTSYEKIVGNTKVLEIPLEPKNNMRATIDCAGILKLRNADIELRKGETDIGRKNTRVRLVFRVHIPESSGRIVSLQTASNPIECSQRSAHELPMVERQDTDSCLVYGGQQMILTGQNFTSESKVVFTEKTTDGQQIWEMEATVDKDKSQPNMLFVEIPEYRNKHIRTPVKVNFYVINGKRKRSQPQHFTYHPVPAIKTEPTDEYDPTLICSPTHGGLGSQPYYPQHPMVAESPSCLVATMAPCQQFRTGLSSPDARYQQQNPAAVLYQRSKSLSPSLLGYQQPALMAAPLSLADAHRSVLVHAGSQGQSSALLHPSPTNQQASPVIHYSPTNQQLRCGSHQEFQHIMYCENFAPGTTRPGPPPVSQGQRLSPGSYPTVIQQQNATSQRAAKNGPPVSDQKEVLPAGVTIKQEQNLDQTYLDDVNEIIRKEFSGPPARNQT

The target in test [2] is T2, NF-ATc expressed from an expression construct in HepG2 cells.
T2 sequence (O95644 1-943, species assumed, looked up): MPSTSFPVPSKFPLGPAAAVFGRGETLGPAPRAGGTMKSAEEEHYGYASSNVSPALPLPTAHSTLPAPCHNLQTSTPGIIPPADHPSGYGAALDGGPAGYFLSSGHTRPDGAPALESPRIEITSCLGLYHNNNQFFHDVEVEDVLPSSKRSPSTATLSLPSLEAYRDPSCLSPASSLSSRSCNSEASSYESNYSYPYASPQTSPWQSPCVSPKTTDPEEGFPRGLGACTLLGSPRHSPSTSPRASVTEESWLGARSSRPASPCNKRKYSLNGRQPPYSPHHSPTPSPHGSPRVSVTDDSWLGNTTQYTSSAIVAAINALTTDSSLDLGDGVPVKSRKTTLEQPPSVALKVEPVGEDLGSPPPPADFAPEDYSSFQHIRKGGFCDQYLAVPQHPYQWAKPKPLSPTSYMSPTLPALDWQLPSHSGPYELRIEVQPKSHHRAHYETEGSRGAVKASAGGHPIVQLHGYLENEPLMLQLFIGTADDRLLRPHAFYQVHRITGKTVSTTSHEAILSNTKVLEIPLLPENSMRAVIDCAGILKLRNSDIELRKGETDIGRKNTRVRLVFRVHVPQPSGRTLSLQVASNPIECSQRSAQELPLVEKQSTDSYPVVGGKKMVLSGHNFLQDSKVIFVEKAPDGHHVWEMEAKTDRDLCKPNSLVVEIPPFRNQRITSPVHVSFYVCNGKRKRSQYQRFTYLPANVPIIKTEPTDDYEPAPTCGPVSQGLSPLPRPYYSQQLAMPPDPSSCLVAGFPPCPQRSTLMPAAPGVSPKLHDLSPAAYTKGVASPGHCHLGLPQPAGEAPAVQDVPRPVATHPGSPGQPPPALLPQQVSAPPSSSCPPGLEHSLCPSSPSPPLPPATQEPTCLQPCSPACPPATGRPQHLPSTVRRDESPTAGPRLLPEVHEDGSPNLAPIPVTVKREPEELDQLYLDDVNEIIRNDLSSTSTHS

For test [3], the target named is T3, NF-AT3 expressed from an expression construct in HepG2 cells.
T3 sequence (Q14934 1-902, species assumed, looked up): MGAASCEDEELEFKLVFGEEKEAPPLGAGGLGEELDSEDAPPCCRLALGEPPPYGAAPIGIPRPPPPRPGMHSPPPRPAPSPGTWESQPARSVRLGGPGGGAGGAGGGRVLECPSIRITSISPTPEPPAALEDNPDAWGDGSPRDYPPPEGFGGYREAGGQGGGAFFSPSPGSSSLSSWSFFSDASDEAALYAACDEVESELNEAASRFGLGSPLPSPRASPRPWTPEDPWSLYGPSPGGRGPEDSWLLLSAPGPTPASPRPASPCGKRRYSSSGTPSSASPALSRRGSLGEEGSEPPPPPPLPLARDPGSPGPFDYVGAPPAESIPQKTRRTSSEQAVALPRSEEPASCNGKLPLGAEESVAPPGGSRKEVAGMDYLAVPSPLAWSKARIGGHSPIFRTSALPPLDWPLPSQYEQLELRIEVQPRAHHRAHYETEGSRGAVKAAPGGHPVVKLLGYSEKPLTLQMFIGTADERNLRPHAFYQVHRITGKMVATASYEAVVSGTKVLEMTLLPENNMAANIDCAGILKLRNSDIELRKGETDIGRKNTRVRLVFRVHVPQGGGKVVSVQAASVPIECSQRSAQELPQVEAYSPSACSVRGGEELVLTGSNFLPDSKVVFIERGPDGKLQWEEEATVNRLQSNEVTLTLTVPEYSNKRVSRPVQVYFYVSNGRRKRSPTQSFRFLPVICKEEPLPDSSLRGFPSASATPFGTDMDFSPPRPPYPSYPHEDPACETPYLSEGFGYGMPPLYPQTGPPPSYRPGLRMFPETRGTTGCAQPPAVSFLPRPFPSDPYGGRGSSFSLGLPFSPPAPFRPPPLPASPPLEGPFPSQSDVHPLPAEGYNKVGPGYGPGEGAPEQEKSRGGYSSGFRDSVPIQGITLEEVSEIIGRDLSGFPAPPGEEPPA

Test [4] has as its target T4, NF-AT4 expressed from an expression construct.
T4 sequence (Q12968 2-1075, species assumed, looked up): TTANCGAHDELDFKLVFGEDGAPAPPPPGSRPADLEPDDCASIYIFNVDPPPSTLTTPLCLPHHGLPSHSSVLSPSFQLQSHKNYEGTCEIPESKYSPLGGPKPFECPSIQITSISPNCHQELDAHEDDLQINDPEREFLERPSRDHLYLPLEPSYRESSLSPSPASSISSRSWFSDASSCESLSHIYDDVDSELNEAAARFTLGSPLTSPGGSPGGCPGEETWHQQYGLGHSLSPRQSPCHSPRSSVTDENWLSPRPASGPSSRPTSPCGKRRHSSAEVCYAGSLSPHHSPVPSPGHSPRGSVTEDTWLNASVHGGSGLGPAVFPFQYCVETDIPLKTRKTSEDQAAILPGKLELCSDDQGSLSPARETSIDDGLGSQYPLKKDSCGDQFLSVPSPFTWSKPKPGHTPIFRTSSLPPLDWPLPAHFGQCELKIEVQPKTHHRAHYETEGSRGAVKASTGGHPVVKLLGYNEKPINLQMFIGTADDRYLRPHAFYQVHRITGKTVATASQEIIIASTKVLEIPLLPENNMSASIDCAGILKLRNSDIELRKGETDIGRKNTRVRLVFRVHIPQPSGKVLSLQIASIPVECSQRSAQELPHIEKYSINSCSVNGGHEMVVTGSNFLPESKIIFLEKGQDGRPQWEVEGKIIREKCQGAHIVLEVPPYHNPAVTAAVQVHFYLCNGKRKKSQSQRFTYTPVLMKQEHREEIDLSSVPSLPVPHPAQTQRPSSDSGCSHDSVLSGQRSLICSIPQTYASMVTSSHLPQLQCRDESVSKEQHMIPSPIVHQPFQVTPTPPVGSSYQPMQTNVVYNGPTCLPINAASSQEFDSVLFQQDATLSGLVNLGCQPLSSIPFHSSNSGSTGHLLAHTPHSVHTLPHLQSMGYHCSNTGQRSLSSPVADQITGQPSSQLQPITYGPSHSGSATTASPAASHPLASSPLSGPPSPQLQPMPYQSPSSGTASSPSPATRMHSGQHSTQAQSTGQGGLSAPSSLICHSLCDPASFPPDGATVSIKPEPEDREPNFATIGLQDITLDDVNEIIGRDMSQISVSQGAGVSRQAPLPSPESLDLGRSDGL

B1: NIP45 expressed from a NIP45 expression plasmid (protein)
chain: MAEPLRGRGPRSRGGRGARRARGARGRCPRARQSPARLIPDTVLVDLVSDSDEEVLEVADPVEVPVARLPAPAKPEQDSDSDSEGAAEGPAGAPRTLVRRRRRRLLDPGEAPVVPVYSGKVQSSLNLIPDNSSLLKLCPSEPEDEADLTNSGSSPSEDDALPSGSPWRKKLRKKCEKEEKKMEEFPDQDISPLPQPSSRNKSRKHTEALQKLREVNKRLQDLRSCLSPKQHQSPALQSTDDEVVLVEGPVLPQSSRLFTLKIRCRADLVRLPVRMSEPLQNVVDHMANHLGVSPNRILLLFGESELSPTATPSTLKLGVADIIDCVVLASSSEATETSQELRLRVQGKEKHQMLEISLSPDSPLKVLMSHYEEAMGLSGHKLSFFFDGTKLSGKELPADLGLESGDLIEVWG
As to B1, the CAT activity of a 3X NF-AT-CAT reporter in HepG2 cells, relative to NF-ATp alone in test [1] lay within 4 to 5 fold. In test [1], this molecule returned a CAT activity of a 3X NF-AT-CAT reporter in HepG2 cells, relative to vector alone of 25 to 30 fold. For the same molecule, the transactivation of a 3X NF-AT-CAT reporter in HepG2 cells in test [2] came out at 4 fold; in test [3], 3 fold; in test [4], 2 fold.
